The text below walks through data of patent US20180155451A1 (published 2018).

One assay concerns the target T1, FcγRIIb (human, UniProt P31994 43-217).
T1 construct: extracellular domain; for crystallography expressed with Kifunesine and trimmed with Endo F1; also called FcgRIIb; FcgR2b; not shown: His tag attached to the C terminus
T1 sequence (looked up): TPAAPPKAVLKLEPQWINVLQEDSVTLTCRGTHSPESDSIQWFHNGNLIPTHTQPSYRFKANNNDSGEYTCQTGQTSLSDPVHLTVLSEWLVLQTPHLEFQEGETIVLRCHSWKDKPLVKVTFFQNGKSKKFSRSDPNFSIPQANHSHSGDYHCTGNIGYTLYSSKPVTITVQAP
Kind of assay: SPR (Biacore), relative binding. From the text:
The constructed expression vectors were each combined with GpH7-A5 and GpL16-k0 to express heterodimerized antibodies, or they were combined with GpL16-k0 alone but not with other H chains to express homodimerized antibodies. These antibodies were expressed and purified according to the method described in Reference Example 1. The resulting purified antibodies are the following: the heterodimerized antibodies GpH7-A5/GpH7-B12/GpL16-k0, GpH7-A5/GpH7-B13/GpL16-k0, GpH7-A5/GpH7-B14/GpL16-k0, and GpH7-A5/GpH7-B15/GpL16-k0; and homodimerized antibodies GpH7-B12/GpL16-k0, GpH7-B13/GpL16-k0, GpH7-B14/GpL16-k0, and GpH7-B15/GpL16-k0. The prepared antibodies were used to assess the binding activity to each FcγR by the method described in Reference Example 2.
(§1) Analysis of interaction between objective antibody and the FcγR was carried out using Biacore T100 (GE Healthcare). HBS-EP+ (GE Healthcare) was used as the running buffer, and the measurement temperature was set to 25° C. Chips produced by immobilizing the antigen peptide by the amine coupling method to a Series S Sencor Chip CM5 (GE Healthcare), or alternatively, chips produced by allowing preliminarily biotinylated antigen peptides to interact with and immobilize onto a Series S Sensor Chip SA (certified) (GE Healthcare) were used. Antibodies of interest were captured onto an antigen peptide-immobilized chip, and allowed to interact to each FcγR diluted with running buffer. To regenerate and repeatedly use the chip, the antibodies captured on the chip were washed off by reacting 10 mM glycine-HCl, pH 1.5.

Assay [1] concerns the target T2, FcγRIIa H (FcγRIIa, allotype with His at position 131), extracellular domain with C-terminal His tag (human, UniProt P12318 34-217).
T2 construct: extracellular domain; Soluble receptor expressed in FreeStyle293 cells and used as the analyte in Biacore; also called FcgRIIa H; FcγRIIa type H; not shown: His tag attached to the C terminus
T2 sequence (looked up): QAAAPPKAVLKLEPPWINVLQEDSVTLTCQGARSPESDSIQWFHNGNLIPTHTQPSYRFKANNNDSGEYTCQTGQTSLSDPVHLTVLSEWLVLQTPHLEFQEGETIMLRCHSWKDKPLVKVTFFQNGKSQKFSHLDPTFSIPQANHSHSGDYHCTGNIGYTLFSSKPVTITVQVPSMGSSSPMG
Nature of the assay: SPR (Biacore T100), antibody captured on antigen-peptide chip, FcγRIIa H as analyte; response per captured antibody relative to GpH7-A5/GpH7-B3/GpL16-k0. How it is done:
as §1

B1: GpH7-A26/GpH7-B3/GpL16-k0 (antibody, human IgG1, kappa)
heavy 1: QVQLVQSGAEVKKPGASVTVSCKASGYTFTDYEMHWIRQPPGEGLEWIGAIDPKTGDTAYSESFQDRVTLTADKSTSTAYMELSSLTSEDTAVYYCTRFYSYTYWGQGTLVTVSSASTKGPSVFPLAPSSKSTSGGTAALGCLVKDYFPEPVTVSWNSGALTSGVHTFPAVLQSSGLYSLSSVVTVPSSSLGTQTYICNVNHKPSNTKVDKKVEPKSCDKTHTCPPCPAPELLGAPSVFLFPPKPKDTLMISRTPEVTCVVVDVSHEDPEVKFNWYVDGVEVHNAKTKPREEQYNSTYRVVSVLTVLHQDWLNGKEYKCKVSNKALPAPIEKTISKAKGQPREPQVYTLPPSRKELTKNQVSLTCLVKGFYPSDIAVEWESNGQPENNYKTTPPVLDSDGSFFLYSKLTVDKSRWQQGNVFSCSVMHEALHNRYTQKSLSLSP
heavy 2: not shown
light: DIVMTQSPLSLPVTPGEPASISCQASESLVHSNRNTYLHWYLQKPGQSPQLLIYKVSNRFSGVPDRFSGSGSGTDFTLKISRVEAEDVGVYYCSQNTHVPPTFGQGTKVEIERTVAAPSVFIFPPSDEQLKSGTASVVCLLNNFYPREAKVQWKVDNALQSGNSQESVTEQDSKDSTYSLSSTLTLSKADYEKHKVYACEVTHQGLSSPVTKSFNRGEC
notes: G237A in one H chain
As for B1, the binding result in the assay with FcγRIIb was “binds”.

B2: GpH7-A26/GpL16-k0 (antibody, human IgG1, kappa)
heavy: QVQLVQSGAEVKKPGASVTVSCKASGYTFTDYEMHWIRQPPGEGLEWIGAIDPKTGDTAYSESFQDRVTLTADKSTSTAYMELSSLTSEDTAVYYCTRFYSYTYWGQGTLVTVSSASTKGPSVFPLAPSSKSTSGGTAALGCLVKDYFPEPVTVSWNSGALTSGVHTFPAVLQSSGLYSLSSVVTVPSSSLGTQTYICNVNHKPSNTKVDKKVEPKSCDKTHTCPPCPAPELLGAPSVFLFPPKPKDTLMISRTPEVTCVVVDVSHEDPEVKFNWYVDGVEVHNAKTKPREEQYNSTYRVVSVLTVLHQDWLNGKEYKCKVSNKALPAPIEKTISKAKGQPREPQVYTLPPSRKELTKNQVSLTCLVKGFYPSDIAVEWESNGQPENNYKTTPPVLDSDGSFFLYSKLTVDKSRWQQGNVFSCSVMHEALHNRYTQKSLSLSP
light: DIVMTQSPLSLPVTPGEPASISCQASESLVHSNRNTYLHWYLQKPGQSPQLLIYKVSNRFSGVPDRFSGSGSGTDFTLKISRVEAEDVGVYYCSQNTHVPPTFGQGTKVEIERTVAAPSVFIFPPSDEQLKSGTASVVCLLNNFYPREAKVQWKVDNALQSGNSQESVTEQDSKDSTYSLSSTLTLSKADYEKHKVYACEVTHQGLSSPVTKSFNRGEC
notes: G237A in both H chains
With B2, the binding result with FcγRIIb is reported as “binds”.

B3: GpH7-A5/GpH7-B3 variant Y300_06M/GpL16-k0 (heterodimerized antibody, He Ab) (antibody, human IgG1, kappa)
heavy 1: not shown
heavy 2: not shown
light: DIVMTQSPLSLPVTPGEPASISCQASESLVHSNRNTYLHWYLQKPGQSPQLLIYKVSNRFSGVPDRFSGSGSGTDFTLKISRVEAEDVGVYYCSQNTHVPPTFGQGTKVEIERTVAAPSVFIFPPSDEQLKSGTASVVCLLNNFYPREAKVQWKVDNALQSGNSQESVTEQDSKDSTYSLSSTLTLSKADYEKHKVYACEVTHQGLSSPVTKSFNRGEC
notes: Anti-glypican-3 IgG1; substitution only in the GpH7-B3 chain; Position is EU numbering; also called He Ab Y300M
Take B3: the He/Con_2aH in assay [1] was 105 relative binding activity (control heterodimerized antibody GpH7-A5/GpH7-B3/GpL16-k0 = 100).

B4: GpH7-A43/GpH7-B3/GpL16-k0 (antibody, human IgG1, kappa)
heavy 1: QVQLVQSGAEVKKPGASVTVSCKASGYTFTDYEMHWIRQPPGEGLEWIGAIDPKTGDTAYSESFQDRVTLTADKSTSTAYMELSSLTSEDTAVYYCTRFYSYTYWGQGTLVTVSSASTKGPSVFPLAPSSKSTSGGTAALGCLVKDYFPEPVTVSWNSGALTSGVHTFPAVLQSSGLYSLSSVVTVPSSSLGTQTYICNVNHKPSNTKVDKKVEPKSCDKTHTCPPCPAPELLGGPSVFLFPPKPKDTLMISRTPEVTCVVVDVSHEDPEVKFNWYVDGVEVHNAKTKPREEQYNSTYRVVSVLTVLHQDWLNGKEYKCKVSNKADPAPIEKTISKAKGQPREPQVYTLPPSRKELTKNQVSLTCLVKGFYPSDIAVEWESNGQPENNYKTTPPVLDSDGSFFLYSKLTVDKSRWQQGNVFSCSVMHEALHNRYTQKSLSLSP
heavy 2: not shown
light: DIVMTQSPLSLPVTPGEPASISCQASESLVHSNRNTYLHWYLQKPGQSPQLLIYKVSNRFSGVPDRFSGSGSGTDFTLKISRVEAEDVGVYYCSQNTHVPPTFGQGTKVEIERTVAAPSVFIFPPSDEQLKSGTASVVCLLNNFYPREAKVQWKVDNALQSGNSQESVTEQDSKDSTYSLSSTLTLSKADYEKHKVYACEVTHQGLSSPVTKSFNRGEC
notes: L328D in one H chain
Take B4: the binding result with FcγRIIb was “binds”.

B5: GpH7-A29/GpH7-B3/GpL16-k0 (antibody, human IgG1, kappa)
heavy 1: QVQLVQSGAEVKKPGASVTVSCKASGYTFTDYEMHWIRQPPGEGLEWIGAIDPKTGDTAYSESFQDRVTLTADKSTSTAYMELSSLTSEDTAVYYCTRFYSYTYWGQGTLVTVSSASTKGPSVFPLAPSSKSTSGGTAALGCLVKDYFPEPVTVSWNSGALTSGVHTFPAVLQSSGLYSLSSVVTVPSSSLGTQTYICNVNHKPSNTKVDKKVEPKSCDKTHTCPPCPAPELLGLPSVFLFPPKPKDTLMISRTPEVTCVVVDVSHEDPEVKFNWYVDGVEVHNAKTKPREEQYNSTYRVVSVLTVLHQDWLNGKEYKCKVSNKALPAPIEKTISKAKGQPREPQVYTLPPSRKELTKNQVSLTCLVKGFYPSDIAVEWESNGQPENNYKTTPPVLDSDGSFFLYSKLTVDKSRWQQGNVFSCSVMHEALHNRYTQKSLSLSP
heavy 2: not shown
light: DIVMTQSPLSLPVTPGEPASISCQASESLVHSNRNTYLHWYLQKPGQSPQLLIYKVSNRFSGVPDRFSGSGSGTDFTLKISRVEAEDVGVYYCSQNTHVPPTFGQGTKVEIERTVAAPSVFIFPPSDEQLKSGTASVVCLLNNFYPREAKVQWKVDNALQSGNSQESVTEQDSKDSTYSLSSTLTLSKADYEKHKVYACEVTHQGLSSPVTKSFNRGEC
notes: G237L in one H chain
For B5, the binding result with FcγRIIb is “binds”.

B6: GpH7-A5/GpH7-B3 variant Y300_08L/GpL16-k0 (heterodimerized antibody, He Ab) (antibody, human IgG1, kappa)
heavy 1: not shown
heavy 2: not shown
light: DIVMTQSPLSLPVTPGEPASISCQASESLVHSNRNTYLHWYLQKPGQSPQLLIYKVSNRFSGVPDRFSGSGSGTDFTLKISRVEAEDVGVYYCSQNTHVPPTFGQGTKVEIERTVAAPSVFIFPPSDEQLKSGTASVVCLLNNFYPREAKVQWKVDNALQSGNSQESVTEQDSKDSTYSLSSTLTLSKADYEKHKVYACEVTHQGLSSPVTKSFNRGEC
notes: Anti-glypican-3 IgG1; substitution only in the GpH7-B3 chain; Position is EU numbering; also called He Ab Y300L
On to B6, for which the He/Con_2aH in assay [1] was 108 relative binding activity (control heterodimerized antibody GpH7-A5/GpH7-B3/GpL16-k0 = 100).

B7: GpH7-A5/GpH7-B3 variant Y300_07I/GpL16-k0 (heterodimerized antibody, He Ab) (antibody, human IgG1, kappa)
heavy 1: not shown
heavy 2: not shown
light: DIVMTQSPLSLPVTPGEPASISCQASESLVHSNRNTYLHWYLQKPGQSPQLLIYKVSNRFSGVPDRFSGSGSGTDFTLKISRVEAEDVGVYYCSQNTHVPPTFGQGTKVEIERTVAAPSVFIFPPSDEQLKSGTASVVCLLNNFYPREAKVQWKVDNALQSGNSQESVTEQDSKDSTYSLSSTLTLSKADYEKHKVYACEVTHQGLSSPVTKSFNRGEC
notes: Anti-glypican-3 IgG1; substitution only in the GpH7-B3 chain; Position is EU numbering; also called He Ab Y300I
Turning to B7, the He/Con_2aH in assay [1] is 108 relative binding activity (control heterodimerized antibody GpH7-A5/GpH7-B3/GpL16-k0 = 100).

B8: GpH7-A42/GpH7-B3/GpL16-k0 (antibody, human IgG1, kappa)
heavy 1: QVQLVQSGAEVKKPGASVTVSCKASGYTFTDYEMHWIRQPPGEGLEWIGAIDPKTGDTAYSESFQDRVTLTADKSTSTAYMELSSLTSEDTAVYYCTRFYSYTYWGQGTLVTVSSASTKGPSVFPLAPSSKSTSGGTAALGCLVKDYFPEPVTVSWNSGALTSGVHTFPAVLQSSGLYSLSSVVTVPSSSLGTQTYICNVNHKPSNTKVDKKVEPKSCDKTHTCPPCPAPELLGGPSVFLFPPKPKDTLMISRTPEVTCVVVDVSHEDPEVKFNWYVDGVEVHNAKTKPREEQYNSTYRVVSVLTVLHQDWLNGKEYKCKVSNKAEPAPIEKTISKAKGQPREPQVYTLPPSRKELTKNQVSLTCLVKGFYPSDIAVEWESNGQPENNYKTTPPVLDSDGSFFLYSKLTVDKSRWQQGNVFSCSVMHEALHNRYTQKSLSLSP
heavy 2: not shown
light: DIVMTQSPLSLPVTPGEPASISCQASESLVHSNRNTYLHWYLQKPGQSPQLLIYKVSNRFSGVPDRFSGSGSGTDFTLKISRVEAEDVGVYYCSQNTHVPPTFGQGTKVEIERTVAAPSVFIFPPSDEQLKSGTASVVCLLNNFYPREAKVQWKVDNALQSGNSQESVTEQDSKDSTYSLSSTLTLSKADYEKHKVYACEVTHQGLSSPVTKSFNRGEC
notes: L328E in one H chain
For the molecule B8, the binding result with FcγRIIb is on record as “binds”.

B9: GpH7-A29/GpL16-k0 (antibody, human IgG1, kappa)
heavy: QVQLVQSGAEVKKPGASVTVSCKASGYTFTDYEMHWIRQPPGEGLEWIGAIDPKTGDTAYSESFQDRVTLTADKSTSTAYMELSSLTSEDTAVYYCTRFYSYTYWGQGTLVTVSSASTKGPSVFPLAPSSKSTSGGTAALGCLVKDYFPEPVTVSWNSGALTSGVHTFPAVLQSSGLYSLSSVVTVPSSSLGTQTYICNVNHKPSNTKVDKKVEPKSCDKTHTCPPCPAPELLGLPSVFLFPPKPKDTLMISRTPEVTCVVVDVSHEDPEVKFNWYVDGVEVHNAKTKPREEQYNSTYRVVSVLTVLHQDWLNGKEYKCKVSNKALPAPIEKTISKAKGQPREPQVYTLPPSRKELTKNQVSLTCLVKGFYPSDIAVEWESNGQPENNYKTTPPVLDSDGSFFLYSKLTVDKSRWQQGNVFSCSVMHEALHNRYTQKSLSLSP
light: DIVMTQSPLSLPVTPGEPASISCQASESLVHSNRNTYLHWYLQKPGQSPQLLIYKVSNRFSGVPDRFSGSGSGTDFTLKISRVEAEDVGVYYCSQNTHVPPTFGQGTKVEIERTVAAPSVFIFPPSDEQLKSGTASVVCLLNNFYPREAKVQWKVDNALQSGNSQESVTEQDSKDSTYSLSSTLTLSKADYEKHKVYACEVTHQGLSSPVTKSFNRGEC
notes: G237L in both H chains
On to B9, for which the binding result in the assay with FcγRIIb was “binds”.
